Source: publication PMC11296239

T1: RORα (mouse, UniProt P51448 1-523)
T1 sequence: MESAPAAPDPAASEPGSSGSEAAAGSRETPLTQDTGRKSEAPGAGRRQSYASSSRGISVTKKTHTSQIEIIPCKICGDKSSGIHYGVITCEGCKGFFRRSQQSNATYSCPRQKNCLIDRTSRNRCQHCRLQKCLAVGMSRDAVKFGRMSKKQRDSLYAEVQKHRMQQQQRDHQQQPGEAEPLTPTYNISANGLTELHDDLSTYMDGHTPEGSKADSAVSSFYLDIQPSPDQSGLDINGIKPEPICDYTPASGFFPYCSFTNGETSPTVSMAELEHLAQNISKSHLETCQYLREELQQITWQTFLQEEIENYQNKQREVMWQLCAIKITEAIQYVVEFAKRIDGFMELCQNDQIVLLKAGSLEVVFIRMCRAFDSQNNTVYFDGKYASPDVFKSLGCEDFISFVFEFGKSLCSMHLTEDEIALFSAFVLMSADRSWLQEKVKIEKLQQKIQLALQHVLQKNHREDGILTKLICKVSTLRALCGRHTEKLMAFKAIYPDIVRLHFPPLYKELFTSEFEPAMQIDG

T2: Rev-erbα (mouse, UniProt Q3UV55 1-615)
T2 sequence: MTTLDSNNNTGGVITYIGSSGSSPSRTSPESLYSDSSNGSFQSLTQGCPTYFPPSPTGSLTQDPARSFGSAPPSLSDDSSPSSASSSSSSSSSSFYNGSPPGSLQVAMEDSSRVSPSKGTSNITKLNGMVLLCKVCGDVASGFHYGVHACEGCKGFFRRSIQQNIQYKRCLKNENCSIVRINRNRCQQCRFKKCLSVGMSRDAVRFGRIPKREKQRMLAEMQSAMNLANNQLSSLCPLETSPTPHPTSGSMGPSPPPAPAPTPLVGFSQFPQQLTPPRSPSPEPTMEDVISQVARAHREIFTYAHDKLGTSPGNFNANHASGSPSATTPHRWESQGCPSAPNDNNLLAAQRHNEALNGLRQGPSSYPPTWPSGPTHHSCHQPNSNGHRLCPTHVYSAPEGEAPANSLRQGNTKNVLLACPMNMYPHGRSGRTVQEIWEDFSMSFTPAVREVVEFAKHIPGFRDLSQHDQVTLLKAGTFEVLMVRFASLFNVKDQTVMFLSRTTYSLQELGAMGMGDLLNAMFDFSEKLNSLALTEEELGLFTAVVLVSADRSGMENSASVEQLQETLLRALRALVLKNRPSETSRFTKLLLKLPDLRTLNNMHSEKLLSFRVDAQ


Legend:
[1] = target: T1, RORα; assay: EMSA
[2] = target: T2, Rev-erbα; assay: EMSA

| Binder | binding result [1] | binding result [2] |
| --- | --- | --- |
| mut h-RRE2 (dsDNA) DNA 1: TCACCTGCTTGACGGCTTGACAGACCG DNA 2: CGGTCTGTCAAGCCGTCAAGCAGGTGA | no binding | no binding |
| mut h-RRE1 (dsDNA) DNA 1: TTCCTCAACAGCCGATACATTGTTTC DNA 2: GAAACAATGTATCGGCTGTTGAGGAA | no binding | no binding |
